First the molecules themselves.
T1: VLP-hCLDN6 (human, UniProt P56747 1-220)
T1 construct: also called VLP-CLDN6; AT-003-ag1
T1 sequence: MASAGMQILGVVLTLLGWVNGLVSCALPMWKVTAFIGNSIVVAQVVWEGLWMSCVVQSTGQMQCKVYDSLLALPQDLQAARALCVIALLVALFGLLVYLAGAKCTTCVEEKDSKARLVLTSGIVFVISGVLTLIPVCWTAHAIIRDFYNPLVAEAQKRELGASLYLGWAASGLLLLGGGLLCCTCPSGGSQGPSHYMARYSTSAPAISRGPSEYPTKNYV

T2: VLP-hCLDN6 (human) (UniProt P56747)
T2 sequence: T1 sequence

B1: murine/human chimeric antibody cAb-1 (antibody, V domains shown)
VH: EVKLVESGGGLVKPGGSLKLSCAASGFTFNSYTMSWVRQTPAKRLEWVVTISSGGGRTYYPDSVKGRFTISRDNARNTLYLQMSSLRSEDTAMYYCIRGDYRYDGFAYWGQGTLVTVST
VL: DIQMTQSPASLSASVGETVTITCRASENIDSYLAWYQQKQGKSPQLLVYASTLLVDGVPSRFSGSRSGTQFSLKINSLQSEDVARYYCQHYYSIPYTFGSGTKLEIK
notes: also called VH0/VL0
B2: humanized antibody hAb-29 (antibody, V domains shown)
VH: B1 VH with K19R, S31D, R76K, S88A, M93V, T119S
VL: B1 VL with A9S, E17D, T18R, Q40P, K74T, N76S, S80P
notes: also called VH2VL4 with HC S31D
B3: humanized antibody hAb-26 (antibody, V domains shown)
VH: B1 VH with K19R, S31Y, R76K, S88A, M93V, T119S
VL: B1 VL with A9S, E17D, T18R, Q40P, K74T, N76S, S80P
notes: also called VH2VL4 with HC S31Y
B4: humanized antibody hAb-34 (antibody, V domains shown)
VH: B1 VH with K19R, S31D, R76K, S88A, M93V, G105A, T119S
VL: B1 VL with A9S, E17D, T18R, Q40P, K74T, N76S, S80P
notes: also called VH2VL4 with HC S31D/G100A
B5: humanized antibody hAb-46 (antibody, V domains shown)
VH: EVQLVESGGGLVKPGGSLRLSCAASGFTFNDYTMSWVRQAPGKRLEWVVTISSGGGRTYYPDSVKGRFTISRDNAKNSLYLQMNSLRAEDTAVYYCIRGDYRYDAFAYWGQGTLVTVSS
VL: DIQMTQSPSSLSASVGDRVTITCRASENIDSYLAWYQQKPGKSPQLLVYASTLLQDGVPSRFSGSRSGTDFTLTISSLQPEDVATYYCQHYYSIPYTFGSGTKLEIK
notes: also called VH8VL5
B6: humanized antibody hAb-30 (antibody, V domains shown)
VH: B1 VH with K19R, S31E, R76K, S88A, M93V, T119S
VL: B5 VL with Q55V, D70Q, T72S, T85R
notes: also called VH2VL4 with HC S31E
B7: humanized antibody hAb-33 (antibody, V domains shown)
VH: B1 VH with K19R, R76K, S88A, M93V, G105A, T119S
VL: B5 VL with Q55V, D70Q, T72S, T85R
notes: also called VH2VL4 with HC G100A
B8: humanized antibody hAb-48 (antibody, V domains shown)
VH: B5 VH with S78T, N84S
VL: B5 VL with Q55V, D70Q, T72S, T85R
notes: also called VH7VL4
B9: humanized antibody hAb-28 (antibody, V domains shown)
VH: B1 VH with K19R, S31Q, R76K, S88A, M93V, T119S
VL: B5 VL with Q55V, D70Q, T72S, T85R
notes: also called VH2VL4 with HC S31Q
B10: humanized antibody hAb-45 (antibody, V domains shown)
VH: B5 VH with S78T, N84S
VL: B5 VL
notes: also called VH7VL5
B11: humanized antibody hAb-49 (antibody, V domains shown)
VH: B5 VH
VL: B5 VL with Q55V, D70Q, T72S, T85R
notes: also called VH8VL4
B12: humanized antibody hAb-47 (antibody, V domains shown)
VH: B5 VH with Q3K
VL: B5 VL with Q55V, D70Q, T72S, T85R
notes: also called VH6VL4
B13: humanized antibody hAb-27 (antibody, V domains shown)
VH: B1 VH with K19R, S31M, R76K, S88A, M93V, T119S
VL: B5 VL with Q55V, D70Q, T72S, T85R
notes: also called VH2VL4 with HC S31M
B14: humanized antibody hAb-44 (antibody, V domains shown)
VH: B5 VH with Q3K
VL: B5 VL
notes: also called VH6VL5
B15: humanized antibody hAb-22 (antibody, V domains shown)
VH: B1 VH with K19R, S88A, M93V, T119S
VL: B5 VL
B16: humanized antibody hAb-23 (antibody, V domains shown)
VH: B1 VH with K19R, S88A, M93V, T119S
VL: B5 VL with D70Q, T85R
B17: humanized antibody hAb-25 (antibody, V domains shown)
VH: B1 VH with K19R, S88A, M93V, T119S
VL: B5 VL with Q55V, D70Q, T72S, T85R
B18: humanized antibody hAb-24 (antibody, V domains shown)
VH: B1 VH with K19R, S88A, M93V, T119S
VL: B5 VL with D70Q, V83F
B19: murine/human chimeric antibody cAb-2 (antibody, V domains shown)
VH: B1 VH with S31E
VL: B1 VL
notes: also called cAb-1 with S31E
B20: murine/human chimeric antibody cAb-18 (antibody, V domains shown)
VH: B1 VH with G105K
VL: B1 VL
notes: also called cAb-1 with G100K
B21: murine/human chimeric antibody cAb-3 (antibody, V domains shown)
VH: B1 VH with S31D
VL: B1 VL
notes: also called cAb-1 with S31D

This is an account of results in patent EP4707304A1 (Axcynsis Therapeutics Pte. Ltd., dated 2024).

Positions count from the first letter of the chain named. In names and notes the source's numbering stands.

In one experiment the target is T1, VLP-hCLDN6. The experiment in a line: ELISA on coated VLP-hCLDN6.
B1 gave an EC50 of 0.59 nM.

With B2, a half-maximal effect (EC50) was put at 0.29 nM.

Regarding B3, the EC50 came to 0.1 nM.

B4 came in with an EC50 of 0.89 nM.

Turning to B5, the EC50 turned out to be 6.55 nM.

In turn, B6 came in with a 50% effective concentration (EC50) of 0.29 nM.

As to B7, the half-maximal effective concentration (EC50) worked out at 0.31 nM.

For the molecule B8, a half-maximal effect (EC50) was put at 0.13 nM.

As to B9, a half-maximal response (EC50) required 0.19 nM.

In the case of B10, the EC50 worked out at 4.84 nM.

B11 came in with an EC50 of 0.07 nM.

In the case of B12, the EC50 amounted to 0.11 nM.

In turn, B13 gave an EC50 of 0.12 nM.

For the molecule B14, the EC50 came to 6.67 nM.

For another experiment, the target named is T2, VLP-hCLDN6 (human). The experiment in a line: ELISA, coated VLP-hCLDN6, 10 ul antibody sample, HRP-Protein A.
Turning to B15, the OD450 turned out to be 1.12.

As for B16, the OD450 was found to be 1.42.

For B17, the OD450 was 1.69.

As to B18, the OD450 was determined as 1.45.

A further experiment addresses T2, VLP-hCLDN6 (human). In words: ELISA, coated VLP-hCLDN6, 100 ul antibody sample, HRP-Protein A.
For the molecule B15, the OD450 was 1.63.

On to B16, for which the OD450 came to 1.82.

Take B17: the OD450 worked out at 2.05.

B18 registered an OD450 of 1.94.

A further experiment concerns the target T2, VLP-hCLDN6 (human). In words: ELISA, coated VLP-hCLDN6, 10 ul antibody sample (second well), HRP-Protein A.
B15 came in with an OD450 of 0.96.

B16 had an OD450 of 1.46.

The molecule B17 gave an OD450 of 1.7.

With B18, the OD450 turned out to be 1.34.

The next experiment addresses T2, VLP-hCLDN6 (human). The experiment in a line: ELISA, coated VLP-hCLDN6, 100 ul antibody sample (second well), HRP-Protein A.
B15 came in with an OD450 of 1.65.

As for B16, the OD450 came out at 2.05.

B17 displayed an OD450 of 2.24.

The molecule B18 displayed an OD450 of 1.87.

The next experiment deals with T1, VLP-hCLDN6. In words: ELISA, VLP-CLDN6 coated 400 ng/well, 4-fold serial dilution, HRP goat anti-human IgG Fc.
In turn, B19 registered a 50% effective concentration (EC50) of 0.52 nM.

Take B20: the EC50 turned out to be 0.58 nM.

B1 displayed a concentration for a half-maximal effect (EC50) of 0.59 nM.

For the molecule B21, the EC50 is 0.26 nM.
